B1: Tetratricopeptide repeat protein 4 (Homo sapiens), O95801 (parent)
chain: MEQPGQDPTSDDVMDSFLEKFQSQPYRGGFHEDQWEKEFEKVPLFMSRAPSEIDPRENPDLACLQSIIFDEERSPEEQAKTYKDEGNDYFKEKDYKKAVISYTEGLKKKCADPDLNAVLYTNRAAAQYYLGNFRSALNDVTAARKLKPCHLKAIIRGALCHLELKHFAEAVNWCDEGLQIDAKEKKLLEMRAKADKLKRIEQRDVRKANLKEKKERNQNEALLQAIKARNIRLSEAACEDEDSASEGLGELFLDGLSTENPHGARLSLDGQGRLSWPVLFLYPEYAQSDFISAFHEDSRFIDHLMVMFGETPSWDLEQKYCPDNLEVYFEDEDRAELYRVPAKSTLLQVLQHQRYFVKALTPAFLVCVGSSPFCKNFLRGRKVYQIR
B2: Tetratricopeptide repeat protein 4 (Homo sapiens), O95801 (parent)
chain: B1 chain
partner: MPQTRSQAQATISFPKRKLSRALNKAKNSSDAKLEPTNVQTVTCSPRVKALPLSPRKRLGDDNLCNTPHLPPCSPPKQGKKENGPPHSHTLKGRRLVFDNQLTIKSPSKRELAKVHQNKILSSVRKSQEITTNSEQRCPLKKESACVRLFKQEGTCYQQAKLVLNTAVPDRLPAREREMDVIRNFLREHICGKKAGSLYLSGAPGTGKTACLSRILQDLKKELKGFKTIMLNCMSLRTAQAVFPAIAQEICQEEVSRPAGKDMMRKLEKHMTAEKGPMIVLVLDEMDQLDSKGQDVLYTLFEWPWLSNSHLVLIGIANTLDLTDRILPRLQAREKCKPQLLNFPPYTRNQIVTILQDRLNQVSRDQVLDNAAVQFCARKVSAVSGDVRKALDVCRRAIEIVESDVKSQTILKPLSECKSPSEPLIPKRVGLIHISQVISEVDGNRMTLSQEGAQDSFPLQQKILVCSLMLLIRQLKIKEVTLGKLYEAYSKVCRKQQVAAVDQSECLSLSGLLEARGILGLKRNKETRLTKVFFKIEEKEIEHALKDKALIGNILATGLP

Variants of: B1
Settings: with hs90b_human HSP90AB1, P08238
Chain of hs90b_human HSP90AB1, P08238 (P08238 whole entry): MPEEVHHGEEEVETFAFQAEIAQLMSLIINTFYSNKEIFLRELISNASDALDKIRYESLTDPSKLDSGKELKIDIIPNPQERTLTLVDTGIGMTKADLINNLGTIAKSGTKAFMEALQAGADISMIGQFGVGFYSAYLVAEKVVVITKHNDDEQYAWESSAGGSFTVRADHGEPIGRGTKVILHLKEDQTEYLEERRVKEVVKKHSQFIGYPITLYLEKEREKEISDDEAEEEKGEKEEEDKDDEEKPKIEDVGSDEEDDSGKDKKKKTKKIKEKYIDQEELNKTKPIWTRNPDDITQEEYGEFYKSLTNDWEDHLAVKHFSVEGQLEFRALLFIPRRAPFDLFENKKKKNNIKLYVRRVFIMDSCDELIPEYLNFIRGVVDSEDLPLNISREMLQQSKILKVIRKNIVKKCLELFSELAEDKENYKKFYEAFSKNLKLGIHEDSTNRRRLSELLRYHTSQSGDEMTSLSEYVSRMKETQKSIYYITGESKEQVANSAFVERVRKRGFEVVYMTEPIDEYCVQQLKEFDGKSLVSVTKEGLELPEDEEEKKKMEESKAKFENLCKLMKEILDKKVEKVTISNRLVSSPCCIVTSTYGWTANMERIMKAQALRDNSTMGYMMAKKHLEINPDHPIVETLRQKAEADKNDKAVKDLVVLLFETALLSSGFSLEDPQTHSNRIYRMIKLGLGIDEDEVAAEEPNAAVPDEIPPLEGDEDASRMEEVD

Row | Variant | effect of a mutation on the interaction
1 | I67M | with no effect
2 | N217K | decreasing interaction strength
3 | E77A | decreasing interaction strength
4 | V42D | with no effect

Variants of: B1
Settings: with hsp7c_human HSPA8, P11142
Chain of hsp7c_human HSPA8, P11142 (P11142 whole entry, looked up): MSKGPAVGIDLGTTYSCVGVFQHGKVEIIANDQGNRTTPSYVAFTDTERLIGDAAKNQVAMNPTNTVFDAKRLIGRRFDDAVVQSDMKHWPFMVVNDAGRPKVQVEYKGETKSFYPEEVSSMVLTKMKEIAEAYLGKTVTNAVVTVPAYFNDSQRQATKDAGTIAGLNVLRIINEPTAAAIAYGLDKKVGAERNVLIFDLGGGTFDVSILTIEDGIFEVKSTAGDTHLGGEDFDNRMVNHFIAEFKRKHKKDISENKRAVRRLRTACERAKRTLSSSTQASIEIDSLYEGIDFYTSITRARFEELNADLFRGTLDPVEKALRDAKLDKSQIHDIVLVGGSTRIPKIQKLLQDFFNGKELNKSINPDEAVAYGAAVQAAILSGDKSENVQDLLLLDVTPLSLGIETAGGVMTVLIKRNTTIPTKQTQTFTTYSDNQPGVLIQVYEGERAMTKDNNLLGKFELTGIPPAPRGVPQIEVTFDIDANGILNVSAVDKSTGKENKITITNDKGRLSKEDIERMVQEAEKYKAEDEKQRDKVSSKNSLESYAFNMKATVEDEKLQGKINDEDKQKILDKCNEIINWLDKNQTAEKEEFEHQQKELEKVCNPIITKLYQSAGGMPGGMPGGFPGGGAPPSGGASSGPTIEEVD

Row | Variant | effect of a mutation on the interaction
5 | I67M | decreasing interaction strength
6 | N217K | with no effect
7 | E77A | with no effect
8 | V42D | decreasing interaction strength

Variants of: B1
Settings: with hs90b_human HSP90AB1, P08238
Remark: another data set of the same source

Row | Variant | effect of a mutation on the interaction
9 | K152E | disrupting interaction strength
10 | K152E;R156E | disrupting interaction strength
11 | R156E | disrupting interaction strength

Variants of: B2
Settings: with cdc6_human CDC6, Q99741

Row | Variant | effect of a mutation on the interaction
12 | V42D | with no effect
13 | I67M | with no effect
14 | E77A | disrupting interaction strength
15 | N217K | disrupting interaction strength
